This is an account of results in publication PMC9414842.

The test deals with human large conductance voltage- and calcium-activated potassium channel (hBK) (human) (UniProt Q12791). Put plainly: cryo-EM structure; random spherically constrained (RSC) single-particle cryo-EM of hBK reconstituted into POPC liposomes, without Ca2+ (20 mM HEPES pH 7.4, 150 mM KCl, 2 mM EDTA); map with C2 symmetry at 3.48 Å.

Broadly, the stoichiometry N is the number of molecules, sites or subunits per partner or assembly.

Sequence of human large conductance voltage- and calcium-activated potassium channel (hBK), Q12791 1-1236 (natural protein; other documents disagree on this pair) (Q12791 whole entry): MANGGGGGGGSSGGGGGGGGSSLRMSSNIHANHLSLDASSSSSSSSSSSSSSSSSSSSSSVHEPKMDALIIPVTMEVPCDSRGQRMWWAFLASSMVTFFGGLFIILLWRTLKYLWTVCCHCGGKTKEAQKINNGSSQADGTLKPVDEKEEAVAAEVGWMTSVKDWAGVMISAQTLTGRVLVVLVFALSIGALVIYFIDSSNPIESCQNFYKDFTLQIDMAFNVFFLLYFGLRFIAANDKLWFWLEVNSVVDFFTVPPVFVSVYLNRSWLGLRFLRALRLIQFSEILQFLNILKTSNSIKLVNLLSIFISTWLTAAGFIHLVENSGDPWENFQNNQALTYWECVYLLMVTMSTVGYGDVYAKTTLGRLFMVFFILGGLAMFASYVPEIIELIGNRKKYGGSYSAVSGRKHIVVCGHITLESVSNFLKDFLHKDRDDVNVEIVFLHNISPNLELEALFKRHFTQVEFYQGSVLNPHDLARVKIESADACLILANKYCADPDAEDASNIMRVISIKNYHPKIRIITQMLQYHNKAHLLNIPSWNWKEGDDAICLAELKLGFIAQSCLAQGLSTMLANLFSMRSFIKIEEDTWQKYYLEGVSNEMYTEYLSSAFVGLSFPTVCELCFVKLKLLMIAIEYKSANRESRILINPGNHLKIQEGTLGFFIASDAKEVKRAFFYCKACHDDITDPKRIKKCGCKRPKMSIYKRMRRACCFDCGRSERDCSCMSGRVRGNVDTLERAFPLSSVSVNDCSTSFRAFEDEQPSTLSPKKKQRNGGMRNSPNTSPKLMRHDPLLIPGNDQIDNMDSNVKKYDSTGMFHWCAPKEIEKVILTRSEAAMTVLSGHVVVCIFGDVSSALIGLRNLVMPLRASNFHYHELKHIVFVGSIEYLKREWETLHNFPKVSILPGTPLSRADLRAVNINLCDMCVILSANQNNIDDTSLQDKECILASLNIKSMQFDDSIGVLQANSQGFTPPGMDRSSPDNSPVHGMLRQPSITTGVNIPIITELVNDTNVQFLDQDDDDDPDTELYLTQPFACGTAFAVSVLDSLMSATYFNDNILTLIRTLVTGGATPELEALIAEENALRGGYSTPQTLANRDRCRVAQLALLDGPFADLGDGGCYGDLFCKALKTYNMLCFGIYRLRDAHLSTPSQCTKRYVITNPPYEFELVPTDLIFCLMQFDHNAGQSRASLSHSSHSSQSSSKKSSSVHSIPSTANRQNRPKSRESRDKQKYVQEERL

On to “human large conductance voltage- and calcium-activated potassium channel (hBK), Q12791 1-1236 (natural protein; other documents disagree on this pair)”, for which the stoichiometry N came to 4.
